T1: GST-ICAT (a.a. Met1-Gln81) (UniProt Q9NSA3 1-81)
T1 sequence (looked up): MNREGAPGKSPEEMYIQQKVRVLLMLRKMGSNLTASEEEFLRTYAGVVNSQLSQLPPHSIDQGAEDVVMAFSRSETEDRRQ

T2: GST-tagged TCF4 fragment (a.a. 1–53) (UniProt Q9NQB0 1-53)
T2 sequence (looked up): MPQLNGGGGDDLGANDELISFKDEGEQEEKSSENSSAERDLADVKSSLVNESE

B1: full-length β-catenin, untagged, wild type (natural protein, human, UniProt P35222 1-781, looked up)
chain: MATQADLMELDMAMEPDRKAAVSHWQQQSYLDSGIHSGATTTAPSLSGKGNPEEEDVDTSQVLYEWEQGFSQSFTQEQVADIDGQYAMTRAQRVRAAMFPETLDEGMQIPSTQFDAAHPTNVQRLAEPSQMLKHAVVNLINYQDDAELATRAIPELTKLLNDEDQVVVNKAAVMVHQLSKKEASRHAIMRSPQMVSAIVRTMQNTNDVETARCTAGTLHNLSHHREGLLAIFKSGGIPALVKMLGSPVDSVLFYAITTLHNLLLHQEGAKMAVRLAGGLQKMVALLNKTNVKFLAITTDCLQILAYGNQESKLIILASGGPQALVNIMRTYTYEKLLWTTSRVLKVLSVCSSNKPAIVEAGGMQALGLHLTDPSQRLVQNCLWTLRNLSDAATKQEGMEGLLGTLVQLLGSDDINVVTCAAGILSNLTCNNYKNKMMVCQVGGIEALVRTVLRAGDREDITEPAICALRHLTSRHQEAEMAQNAVRLHYGLPVVVKLLHPPSHWPLIKATVGLIRNLALCPANHAPLREQGAIPRLVQLLVRAHQDTQRRTSMGGTQQQFVEGVRMEEIVEGCTGALHILARDVHNRIVIRGLNTIPLFVQLLYSPIENIQRVAAGVLCELAQDKEAAEAIEAEGATAPLTELLHSRNEGVATYAAAVLFRMSEDKPQDYKKRLSVELTSSLFRTEPMAWNETADLGLDIGAQGEPLGYRQDDPSYRSFHSGGYGQDALGMDPMMEHEMGGHHPGADYPVDGLPDLGHAQDLMDGLPPGDSNQLAWFDTDL
B2: GST-tagged AXIN1 CBD peptide V475I/L479W (a.a. 435-498) (domain or fragment, human, UniProt O15169-1 435-498, looked up)
chain: CHKLPPAPAWHHFPPRCVDMGCAGLRDAHEENPESILDEHIQRVWRTPGRQSPGPGHRSPDSGH

Assays:
Assay in all cases: BLI
[1] = molecular target: B2
[2] = molecular target: T1, GST-ICAT (a.a. Met1-Gln81)
[3] = molecular target: T2, GST-tagged TCF4 fragment (a.a. 1–53)
[4] = molecular target: B1

fold reduction of affinity against wild-type β-catenin [3] [fold]	Kd [4] [nM]	Binder	further results
		B1	fold decrease of koff against the wild-type CBD peptide [1]: ~20 fold; half-life of the complex [1]: ~1 min
~10		β-catenin D624K/E626K/E628K (purified, full length, untagged) (natural protein) MATQADLMELDMAMEPDRKAAVSHWQQQSYLDSGIHSGATTTAPSLSGKGNPEEEDVDTSQVLYEWEQGFSQSFTQEQVADIDGQYAMTRAQRVRAAMFPETLDEGMQIPSTQFDAAHPTNVQRLAEPSQMLKHAVVNLINYQDDAELATRAIPELTKLLNDEDQVVVNKAAVMVHQLSKKEASRHAIMRSPQMVSAIVRTMQNTNDVETARCTAGTLHNLSHHREGLLAIFKSGGIPALVKMLGSPVDSVLFYAITTLHNLLLHQEGAKMAVRLAGGLQKMVALLNKTNVKFLAITTDCLQILAYGNQESKLIILASGGPQALVNIMRTYTYEKLLWTTSRVLKVLSVCSSNKPAIVEAGGMQALGLHLTDPSQRLVQNCLWTLRNLSDAATKQEGMEGLLGTLVQLLGSDDINVVTCAAGILSNLTCNNYKNKMMVCQVGGIEALVRTVLRAGDREDITEPAICALRHLTSRHQEAEMAQNAVRLHYGLPVVVKLLHPPSHWPLIKATVGLIRNLALCPANHAPLREQGAIPRLVQLLVRAHQDTQRRTSMGGTQQQFVEGVRMEEIVEGCTGALHILARDVHNRIVIRGLNTIPLFVQLLYSPIENIQRVAAGVLCELAQKKKAAKAIEAEGATAPLTELLHSRNEGVATYAAAVLFRMSEDKPQDYKKRLSVELTSSLFRTEPMAWNETADLGLDIGAQGEPLGYRQDDPSYRSFHSGGYGQDALGMDPMMEHEMGGHHPGADYPVDGLPDLGHAQDLMDGLPPGDSNQLAWFDTDL	fold reduction of affinity against wild-type β-catenin [2]: ~10 fold
> 10		full-length β-catenin R469H, untagged (natural protein, human, UniProt P35222 1-781, looked up) MATQADLMELDMAMEPDRKAAVSHWQQQSYLDSGIHSGATTTAPSLSGKGNPEEEDVDTSQVLYEWEQGFSQSFTQEQVADIDGQYAMTRAQRVRAAMFPETLDEGMQIPSTQFDAAHPTNVQRLAEPSQMLKHAVVNLINYQDDAELATRAIPELTKLLNDEDQVVVNKAAVMVHQLSKKEASRHAIMRSPQMVSAIVRTMQNTNDVETARCTAGTLHNLSHHREGLLAIFKSGGIPALVKMLGSPVDSVLFYAITTLHNLLLHQEGAKMAVRLAGGLQKMVALLNKTNVKFLAITTDCLQILAYGNQESKLIILASGGPQALVNIMRTYTYEKLLWTTSRVLKVLSVCSSNKPAIVEAGGMQALGLHLTDPSQRLVQNCLWTLRNLSDAATKQEGMEGLLGTLVQLLGSDDINVVTCAAGILSNLTCNNYKNKMMVCQVGGIEALVRTVLRAGDREDITEPAICALHHLTSRHQEAEMAQNAVRLHYGLPVVVKLLHPPSHWPLIKATVGLIRNLALCPANHAPLREQGAIPRLVQLLVRAHQDTQRRTSMGGTQQQFVEGVRMEEIVEGCTGALHILARDVHNRIVIRGLNTIPLFVQLLYSPIENIQRVAAGVLCELAQDKEAAEAIEAEGATAPLTELLHSRNEGVATYAAAVLFRMSEDKPQDYKKRLSVELTSSLFRTEPMAWNETADLGLDIGAQGEPLGYRQDDPSYRSFHSGGYGQDALGMDPMMEHEMGGHHPGADYPVDGLPDLGHAQDLMDGLPPGDSNQLAWFDTDL	
	40	B2	
	~450	GST-tagged AXIN1 CBD peptide V475I (a.a. 435-498) (domain or fragment, human, UniProt O15169-1 435-498, looked up) CHKLPPAPAWHHFPPRCVDMGCAGLRDAHEENPESILDEHIQRVLRTPGRQSPGPGHRSPDSGH	
> 10		full-length β-catenin C466Y/A467T, untagged (natural protein, human, UniProt P35222 1-781, looked up) MATQADLMELDMAMEPDRKAAVSHWQQQSYLDSGIHSGATTTAPSLSGKGNPEEEDVDTSQVLYEWEQGFSQSFTQEQVADIDGQYAMTRAQRVRAAMFPETLDEGMQIPSTQFDAAHPTNVQRLAEPSQMLKHAVVNLINYQDDAELATRAIPELTKLLNDEDQVVVNKAAVMVHQLSKKEASRHAIMRSPQMVSAIVRTMQNTNDVETARCTAGTLHNLSHHREGLLAIFKSGGIPALVKMLGSPVDSVLFYAITTLHNLLLHQEGAKMAVRLAGGLQKMVALLNKTNVKFLAITTDCLQILAYGNQESKLIILASGGPQALVNIMRTYTYEKLLWTTSRVLKVLSVCSSNKPAIVEAGGMQALGLHLTDPSQRLVQNCLWTLRNLSDAATKQEGMEGLLGTLVQLLGSDDINVVTCAAGILSNLTCNNYKNKMMVCQVGGIEALVRTVLRAGDREDITEPAIYTLRHLTSRHQEAEMAQNAVRLHYGLPVVVKLLHPPSHWPLIKATVGLIRNLALCPANHAPLREQGAIPRLVQLLVRAHQDTQRRTSMGGTQQQFVEGVRMEEIVEGCTGALHILARDVHNRIVIRGLNTIPLFVQLLYSPIENIQRVAAGVLCELAQDKEAAEAIEAEGATAPLTELLHSRNEGVATYAAAVLFRMSEDKPQDYKKRLSVELTSSLFRTEPMAWNETADLGLDIGAQGEPLGYRQDDPSYRSFHSGGYGQDALGMDPMMEHEMGGHHPGADYPVDGLPDLGHAQDLMDGLPPGDSNQLAWFDTDL	
~7		purified β-catenin E571K (full length, untagged) (natural protein, human, UniProt P35222 1-781, looked up) MATQADLMELDMAMEPDRKAAVSHWQQQSYLDSGIHSGATTTAPSLSGKGNPEEEDVDTSQVLYEWEQGFSQSFTQEQVADIDGQYAMTRAQRVRAAMFPETLDEGMQIPSTQFDAAHPTNVQRLAEPSQMLKHAVVNLINYQDDAELATRAIPELTKLLNDEDQVVVNKAAVMVHQLSKKEASRHAIMRSPQMVSAIVRTMQNTNDVETARCTAGTLHNLSHHREGLLAIFKSGGIPALVKMLGSPVDSVLFYAITTLHNLLLHQEGAKMAVRLAGGLQKMVALLNKTNVKFLAITTDCLQILAYGNQESKLIILASGGPQALVNIMRTYTYEKLLWTTSRVLKVLSVCSSNKPAIVEAGGMQALGLHLTDPSQRLVQNCLWTLRNLSDAATKQEGMEGLLGTLVQLLGSDDINVVTCAAGILSNLTCNNYKNKMMVCQVGGIEALVRTVLRAGDREDITEPAICALRHLTSRHQEAEMAQNAVRLHYGLPVVVKLLHPPSHWPLIKATVGLIRNLALCPANHAPLREQGAIPRLVQLLVRAHQDTQRRTSMGGTQQQFVEGVRMEEIVKGCTGALHILARDVHNRIVIRGLNTIPLFVQLLYSPIENIQRVAAGVLCELAQDKEAAEAIEAEGATAPLTELLHSRNEGVATYAAAVLFRMSEDKPQDYKKRLSVELTSSLFRTEPMAWNETADLGLDIGAQGEPLGYRQDDPSYRSFHSGGYGQDALGMDPMMEHEMGGHHPGADYPVDGLPDLGHAQDLMDGLPPGDSNQLAWFDTDL	
	1000	GST-tagged AXIN1 CBD peptide, wild type (a.a. Cys435-His498) (domain or fragment, human, UniProt O15169-1 435-498, looked up) CHKLPPAPAWHHFPPRCVDMGCAGLRDAHEENPESILDEHVQRVLRTPGRQSPGPGHRSPDSGH	

— article PMC12633535 (bioRxiv, 2025)
